Measured values published in publication PMC3737549.

Target: RORγ-mCherry (UniProt P51450)
UniProt P51450, sequence (P51450 whole entry): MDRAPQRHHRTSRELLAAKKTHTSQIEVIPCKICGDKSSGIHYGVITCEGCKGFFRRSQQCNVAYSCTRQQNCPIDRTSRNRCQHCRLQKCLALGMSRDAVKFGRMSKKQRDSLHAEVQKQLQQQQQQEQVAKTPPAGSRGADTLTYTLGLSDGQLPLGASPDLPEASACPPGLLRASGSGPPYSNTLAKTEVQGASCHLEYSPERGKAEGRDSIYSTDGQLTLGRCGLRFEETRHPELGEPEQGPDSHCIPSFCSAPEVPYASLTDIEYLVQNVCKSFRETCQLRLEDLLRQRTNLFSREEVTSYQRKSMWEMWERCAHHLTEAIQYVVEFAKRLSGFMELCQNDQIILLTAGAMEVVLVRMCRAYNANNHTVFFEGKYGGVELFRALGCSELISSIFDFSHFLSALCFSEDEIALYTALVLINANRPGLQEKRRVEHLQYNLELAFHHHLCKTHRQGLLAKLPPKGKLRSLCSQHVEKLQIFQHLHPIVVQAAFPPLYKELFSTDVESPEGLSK

| nuclear localisation of PΔC636 in COS-1 cells: percent of cells with the mutant predominantly in the nucleus on co-expression with RORγ (6% when expressed alone) (% of the cells) | nuclear localisation of PΔN106 in COS-1 cells: percent of cells with the mutant principally in the nucleus on co-expression with RORγ (50% when expressed alone) (% of the cells) | Binder |
| --- | --- | --- |
| 80 |  | Myc-Prox1 PΔC636 (domain or fragment) MPDHDSTALLSRQTKRRRVDIGVKRTVGTASAFFAKARATFFSAMNPQGSEQDVEYSVVQHADGEKSNVLRKLLKRANSYEDAMMPFPGATIISQLLKNNMNKNGGTEPSFQASGLSSTGSEVHQEDICSNSSRDSPPECLSPFGRPTMSQFDVDRLCDEHLRAKRARVENIIRGMSHSPSVALRGNENEREMAPQSVSPRESYRENKRKQKLPQQQQQSFQQLVSARKEQKREERRQLKQQLEDMQKQLRQLQEKFYQVYDSTDSENDEDGDLSEDSMRSEILDARAQDSVGRSDNEMCELDPGQFIDRARALIREQEMAENKPKREGSNKERDHGPNSLQPEGKHLAETLKQELNTAMSQVVDTVVKVFSAKPSRQVPQVFPPLQIPQARFAVNGENHNFHTANQRLQCFGDVIIPNPLDTFGSVQMPSSTDQTEALPLVVRKNSSEQSASGPATGGHHQPLHQSPLSATAGFTTPSFRHPFPLPLMAYPFQSPLGAPSGSFSGKDRASPESLDLTRDTTSLRTKMSSHHLSHHPCSPAHPPSTAEGLSLSLIKSECGDLQDMSDISPYSGSAMQEGLSPNHLKKAKLMFFYTRYPSSNMLKTYFSDVKFNRCITSQLIKWFSNFREFYYIQME |
|  | 90 | Myc-Prox1 PΔN106 (domain or fragment) TEPSFQASGLSSTGSEVHQEDICSNSSRDSPPECLSPFGRPTMSQFDVDRLCDEHLRAKRARVENIIRGMSHSPSVALRGNENEREMAPQSVSPRESYRENKRKQKLPQQQQQSFQQLVSARKEQKREERRQLKQQLEDMQKQLRQLQEKFYQVYDSTDSENDEDGDLSEDSMRSEILDARAQDSVGRSDNEMCELDPGQFIDRARALIREQEMAENKPKREGSNKERDHGPNSLQPEGKHLAETLKQELNTAMSQVVDTVVKVFSAKPSRQVPQVFPPLQIPQARFAVNGENHNFHTANQRLQCFGDVIIPNPLDTFGSVQMPSSTDQTEALPLVVRKNSSEQSASGPATGGHHQPLHQSPLSATAGFTTPSFRHPFPLPLMAYPFQSPLGAPSGSFSGKDRASPESLDLTRDTTSLRTKMSSHHLSHHPCSPAHPPSTAEGLSLSLIKSECGDLQDMSDISPYSGSAMQEGLSPNHLKKAKLMFFYTRYPSSNMLKTYFSDVKFNRCITSQLIKWFSNFREFYYIQMEKYARQAINDGVTSTEELSITRDCELYRALNMHYNKANDFEVPERFLEVAQITLREFFNAIIAGKDVDPSWKKAIYKVICKLDSEVPEIFKSPNCLQELLHE |
